Values belong to the substance of their own block, whether it stands above or below them.
How the values were obtained:
[1] = target: BRCT-Ab2p complex (UniProt P38398); assay: native MS; peak fractions from gel filtration, 15 μM protein, 300 mM ammonium acetate pH 7.6, nano-electrospray
[2] = target: BRCA1 BRCT domains (UniProt P38398); assay: small angle X-ray scattering; settings: reference: Ab1p (pS406 only); sites S404
[3] = target: BRCA1 BRCT domains (UniProt P38398); assay: size exclusion chromatography, 1:1 versus 2:2 complex; settings: reference: Ab1p (pS406 only); sites S404
[4] = target: BRCA1 BRCT domains (UniProt P38398); assay: native mass spectrometry, 15 µM; settings: reference: Ab1p (pS406 only); sites S404
[5] = target: BRCA1 BRCT domains (UniProt P38398); assay: size exclusion chromatography, 1 mg/ml; settings: sites S406

stoichiometry N [1]: 2
Substance: BRCT-Ab2p complex (from UniProt P38398 1646-1859)

binding against the reference [2]: stronger
binding against the reference [3]: stronger
binding against the reference [4]: stronger
binding against the reference ([5]; reference: pS404-only peptide): gained
Substance: Abraxas 399-409 (from UniProt Q6UWZ7) Ab2p (pS404 pS406)

binding against the reference ([5]; reference: unphosphorylated peptide): gained
Substance: Abraxas 399-409 (from UniProt Q6UWZ7) pS406 peptide (Ab1p)
